B1: target 1 MT 5'PFS GUA 3'PFS GUU (mixed)
RNA 1: CACCCGUGCAAAAAUGCAGGGGUCUAAAACUGAGCGGAUAACCUCUCUAUGG
RNA 2: GGGAAUGGAUCCACAUCUACGAAUUCGUACCAUAGAGAGGUUAUCCGCUCAGUUAGAUCGGAAGAGCACACGU
B2: target 1 C4U,A9G (mixed)
RNA 1: CACCCGUGCAAAAAUGCAGGGGUCUAAAACUGAGCGGAUAACCUCUCUAUGG
RNA 2: GGGAAUGGAUCCACAUCUACGAAUUCGUACCAUAGAGAGGUUGUCCGUUCACCGAGAUCGGAAGAGCACACGU
B3: target 1 C2G,G5C (mixed)
RNA 1: CACCCGUGCAAAAAUGCAGGGGUCUAAAACUGAGCGGAUAACCUCUCUAUGG
RNA 2: GGGAAUGGAUCCACAUCUACGAAUUCGUACCAUAGAGAGGUUAUCCCCUGACCGAGAUCGGAAGAGCACACGU
B4: target 1 MT 5'PFS GCG 3'PFS CGU (mixed)
RNA 1: CACCCGUGCAAAAAUGCAGGGGUCUAAAACUGAGCGGAUAACCUCUCUAUGG
RNA 2: GGGAAUGGAUCCACAUCUACGAAUUCGCGCCAUAGAGAGGUUAUCCGCUCACGUAGAUCGGAAGAGCACACGU
B5: target 1 MT 5'PFS GUA 3'PFS GUG (mixed)
RNA 1: CACCCGUGCAAAAAUGCAGGGGUCUAAAACUGAGCGGAUAACCUCUCUAUGG
RNA 2: GGGAAUGGAUCCACAUCUACGAAUUCGUACCAUAGAGAGGUUAUCCGCUCAGUGAGAUCGGAAGAGCACACGU
B6: target 1 MT 5'PFS CCC 3'PFS AGC (mixed)
RNA 1: CACCCGUGCAAAAAUGCAGGGGUCUAAAACUGAGCGGAUAACCUCUCUAUGG
RNA 2: GGGAAUGGAUCCACAUCUACGAAUUCCCCCCAUAGAGAGGUUAUCCGCUCAAGCAGAUCGGAAGAGCACACGU
B7: target 1 MT 5'PFS UAG 3'PFS CUU (mixed)
RNA 1: CACCCGUGCAAAAAUGCAGGGGUCUAAAACUGAGCGGAUAACCUCUCUAUGG
RNA 2: GGGAAUGGAUCCACAUCUACGAAUUCUAGCCAUAGAGAGGUUAUCCGCUCACUUAGAUCGGAAGAGCACACGU
B8: target 1 MT 5'PFS CAG 3'PFS UCU (mixed)
RNA 1: CACCCGUGCAAAAAUGCAGGGGUCUAAAACUGAGCGGAUAACCUCUCUAUGG
RNA 2: GGGAAUGGAUCCACAUCUACGAAUUCCAGCCAUAGAGAGGUUAUCCGCUCAUCUAGAUCGGAAGAGCACACGU
B9: target 1 MT 5'PFS GCG 3'PFS CGA (mixed)
RNA 1: CACCCGUGCAAAAAUGCAGGGGUCUAAAACUGAGCGGAUAACCUCUCUAUGG
RNA 2: GGGAAUGGAUCCACAUCUACGAAUUCGCGCCAUAGAGAGGUUAUCCGCUCACGAAGAUCGGAAGAGCACACGU
B10: target 1 MT 5'PFS GUG 3'PFS UAC (mixed)
RNA 1: CACCCGUGCAAAAAUGCAGGGGUCUAAAACUGAGCGGAUAACCUCUCUAUGG
RNA 2: GGGAAUGGAUCCACAUCUACGAAUUCGUGCCAUAGAGAGGUUAUCCGCUCAUACAGAUCGGAAGAGCACACGU
B11: target 1 C4G,A20U (mixed)
RNA 1: CACCCGUGCAAAAAUGCAGGGGUCUAAAACUGAGCGGAUAACCUCUCUAUGG
RNA 2: GGGAAUGGAUCCACAUCUACGAAUUCGUACCUUAGAGAGGUUAUCCGGUCACCGAGAUCGGAAGAGCACACGU
B12: target 1 MT 5'PFS GCG 3'PFS CGC (mixed)
RNA 1: CACCCGUGCAAAAAUGCAGGGGUCUAAAACUGAGCGGAUAACCUCUCUAUGG
RNA 2: GGGAAUGGAUCCACAUCUACGAAUUCGCGCCAUAGAGAGGUUAUCCGCUCACGCAGAUCGGAAGAGCACACGU
B13: target 1 MT 5'PFS GAG 3'PFS CUG (mixed)
RNA 1: CACCCGUGCAAAAAUGCAGGGGUCUAAAACUGAGCGGAUAACCUCUCUAUGG
RNA 2: GGGAAUGGAUCCACAUCUACGAAUUCGAGCCAUAGAGAGGUUAUCCGCUCACUGAGAUCGGAAGAGCACACGU
B14: target 1 MT 5'PFS GUG 3'PFS UAA (mixed)
RNA 1: CACCCGUGCAAAAAUGCAGGGGUCUAAAACUGAGCGGAUAACCUCUCUAUGG
RNA 2: GGGAAUGGAUCCACAUCUACGAAUUCGUGCCAUAGAGAGGUUAUCCGCUCAUAAAGAUCGGAAGAGCACACGU
B15: target 1 MT 5'PFS GUA 3'PFS GUC (mixed)
RNA 1: CACCCGUGCAAAAAUGCAGGGGUCUAAAACUGAGCGGAUAACCUCUCUAUGG
RNA 2: GGGAAUGGAUCCACAUCUACGAAUUCGUACCAUAGAGAGGUUAUCCGCUCAGUCAGAUCGGAAGAGCACACGU
B16: target 1 MT 5'PFS CAG 3'PFS AAC (mixed)
RNA 1: CACCCGUGCAAAAAUGCAGGGGUCUAAAACUGAGCGGAUAACCUCUCUAUGG
RNA 2: GGGAAUGGAUCCACAUCUACGAAUUCCAGCCAUAGAGAGGUUAUCCGCUCAAACAGAUCGGAAGAGCACACGU
B17: target 1 insG 3' of 11,insC 3' of 5 (mixed)
RNA 1: CACCCGUGCAAAAAUGCAGGGGUCUAAAACUGAGCGGAUAACCUCUCUAUGG
RNA 2: GGGAAUGGAUCCACAUCUACGAAUUCGUACCAUAGAGAGGUGUAUCCGCCUCACCGAGAUCGGAAGAGCACACGU
B18: target 1 MT 5'PFS GCG 3'PFS CGG (mixed)
RNA 1: CACCCGUGCAAAAAUGCAGGGGUCUAAAACUGAGCGGAUAACCUCUCUAUGG
RNA 2: GGGAAUGGAUCCACAUCUACGAAUUCGCGCCAUAGAGAGGUUAUCCGCUCACGGAGAUCGGAAGAGCACACGU
B19: target 1 MT 5'PFS GUG 3'PFS UAG (mixed)
RNA 1: CACCCGUGCAAAAAUGCAGGGGUCUAAAACUGAGCGGAUAACCUCUCUAUGG
RNA 2: GGGAAUGGAUCCACAUCUACGAAUUCGUGCCAUAGAGAGGUUAUCCGCUCAUAGAGAUCGGAAGAGCACACGU
B20: target 1 MT 5'PFS CAG 3'PFS UCC (mixed)
RNA 1: CACCCGUGCAAAAAUGCAGGGGUCUAAAACUGAGCGGAUAACCUCUCUAUGG
RNA 2: GGGAAUGGAUCCACAUCUACGAAUUCCAGCCAUAGAGAGGUUAUCCGCUCAUCCAGAUCGGAAGAGCACACGU
B21: target 1 MT 5'PFS AAC 3'PFS AUU (mixed)
RNA 1: CACCCGUGCAAAAAUGCAGGGGUCUAAAACUGAGCGGAUAACCUCUCUAUGG
RNA 2: GGGAAUGGAUCCACAUCUACGAAUUCAACCCAUAGAGAGGUUAUCCGCUCAAUUAGAUCGGAAGAGCACACGU
B22: target 1 MT 5'PFS GUG 3'PFS UAU (mixed)
RNA 1: CACCCGUGCAAAAAUGCAGGGGUCUAAAACUGAGCGGAUAACCUCUCUAUGG
RNA 2: GGGAAUGGAUCCACAUCUACGAAUUCGUGCCAUAGAGAGGUUAUCCGCUCAUAUAGAUCGGAAGAGCACACGU
B23: target 1 MT 5'PFS CAG 3'PFS UCG (mixed)
RNA 1: CACCCGUGCAAAAAUGCAGGGGUCUAAAACUGAGCGGAUAACCUCUCUAUGG
RNA 2: GGGAAUGGAUCCACAUCUACGAAUUCCAGCCAUAGAGAGGUUAUCCGCUCAUCGAGAUCGGAAGAGCACACGU

The target in the series is T1, EsCas13d, nuclease-dead (Eubacterium siraeum, UniProt B0MS50, R295A;H300A;R849A;H854A).
T1 sequence: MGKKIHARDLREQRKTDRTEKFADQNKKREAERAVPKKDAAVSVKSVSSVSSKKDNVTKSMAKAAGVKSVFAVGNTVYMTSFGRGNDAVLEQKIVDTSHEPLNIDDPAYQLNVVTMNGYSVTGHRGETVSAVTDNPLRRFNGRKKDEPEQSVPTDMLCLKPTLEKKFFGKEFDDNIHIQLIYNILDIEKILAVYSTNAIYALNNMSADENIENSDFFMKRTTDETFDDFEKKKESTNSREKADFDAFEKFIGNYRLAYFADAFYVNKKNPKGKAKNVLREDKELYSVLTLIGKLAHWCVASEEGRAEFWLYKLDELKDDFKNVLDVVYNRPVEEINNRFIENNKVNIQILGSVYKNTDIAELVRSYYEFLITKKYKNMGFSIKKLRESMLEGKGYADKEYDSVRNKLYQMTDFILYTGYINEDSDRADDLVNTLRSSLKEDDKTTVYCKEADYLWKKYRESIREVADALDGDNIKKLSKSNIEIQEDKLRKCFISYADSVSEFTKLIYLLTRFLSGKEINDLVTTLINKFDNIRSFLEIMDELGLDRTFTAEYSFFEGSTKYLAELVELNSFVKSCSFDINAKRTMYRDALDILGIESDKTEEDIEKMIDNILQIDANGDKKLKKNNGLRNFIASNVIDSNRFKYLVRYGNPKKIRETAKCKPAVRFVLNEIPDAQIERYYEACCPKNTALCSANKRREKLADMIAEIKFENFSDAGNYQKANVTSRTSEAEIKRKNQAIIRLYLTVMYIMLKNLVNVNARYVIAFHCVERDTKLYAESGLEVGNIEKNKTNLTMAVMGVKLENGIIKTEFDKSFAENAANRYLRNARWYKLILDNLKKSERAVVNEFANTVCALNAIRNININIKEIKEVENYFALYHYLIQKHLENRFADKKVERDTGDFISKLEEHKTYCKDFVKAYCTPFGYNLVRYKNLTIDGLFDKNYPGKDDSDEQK
The experiment in a line: crRNA (strand 1, pre-loaded); Mg2+; 40 mM Tris-HCl pH 7.5, 150 mM NaCl, 6 mM MgCl2, 1 mM DTT, 0.1% Tween-20, 0.2 mg/ml BSA; 25 C; 10 min per concentration, then washed. To be noted: tags: His6-TwinStrep-SUMO cleaved; N-terminal SNAP kept (SNAP-Surface 488); label: 3' end held by stalled T7 RNA polymerase.
For the molecule B1, the Kd is 11.4 ± 1.05 nM.
The result for B2 reads 42 ± 8 nM; that for B3, 14 ± 1.1 nM; that for B4, about 70 nM.
In the case of B5 it was 8.5 ± 0.95 nM; in that of B6, about 40 nM; in that of B7, 28 ± 5.5 nM.
The result for B8 reads 19 ± 7 nM; that for B9, 49.5 ± 17 nM.
The molecule B10 showed a Kd of 19.9 ± 2.05 nM.
In the case of B11 it was 17.5 ± 2 nM; in that of B12, about 80 nM.
In the case of B13 it was about 23.5 nM.
The result for B14 reads 14.8 ± 0.95 nM; that for B15, 9.35 ± 1 nM.
As for B16, binding was put at a Kd of 75 ± 36.5 nM.
In the case of B17 it was 78 ± 21 nM.
In turn, B18 yielded a Kd of 67.5 ± 27.5 nM.
In the case of B19 it was 16 ± 1.5 nM; in that of B20, 11.9 ± 5.25 nM.
The result for B21 reads about 21 nM; that for B22, 11.3 ± 0.8 nM.
In turn, B23 had a Kd of 9 ± 1.75 nM.

The values above are taken from PMC10786891, “Massively parallel profiling of RNA-targeting CRISPR-Cas13d”.
